From the DeepSol protein solubility set

test: soluble on expression in E. coli; label from the status in PepcDB or PDB records

Sequence | soluble on expression in E. coli
HMSNFTGLKVLVMDENGVSRMVTKGLLVHLGCEVTTVSSNEECLRVVSHEHKVVFMDVCMPGVENYQIALRIHEKFTKQRHQRPLLVALSGNTDKSTKEKCMSFGLDGVLLKPVSLDNIRDVLSDLLEPRVLYEGM | soluble
MPVEHLDVLIVGAGLSGVGAAYHLMKHCPGKSFALLEGRAAMGGTWDLFRYPGIRSDSDMFTLGYNFKPWSDPKAIADGPSIRRYIEETARENGIDRKIRYRHRVLRADWDSANARWNLDVQRGDEPEPLRMTAQFLLMCTGYYRYEAGYTPEFVGREDFAGQVVHPQLWPEDLDYSGKKVVVIGSGATAVTLVPSLTDKAAHVTMLQRSPSYVITLPQKDAISNFLRRFLPETWIYRQARARNVAMQMVFFMLARTFPGLVRKALLKLASLQLGKRFDIRHFSPRYKPWDERVCAVPDGDLFKVLRKGKASVVTEHIDRFVERGIRLKTGEVLEADIIVTATGLDLVMFGGAELAVDGKPFLVNQSMGYRGIMLRDLPNLAAVVGYTNASWTLKADLSSEYFCRLINHMDATGMRQVTARDSTGDVREEPFLNLDSGYIQRAAERMPKQGDRMPWKLYQNYVLDLALLRYGKVEDGYLVFSSPAPQRQAGGAAVQALGLEHHHHHH | not soluble
MSLKRAEPQSLQVSQNELQAMAYSDPLTGLGNRYRLRDKIRMLASERSSDPAPFTVGIANIDGFKPINDLFGVQAGDEILCQVAHRLKACIPDGAIVTRHDGDEFAFVLPLIFERIGAERIGNMIKDVLSAPYDLGDRNVRLSSSFGFAIYPFAGDEYEDLLKSAETALYRSKRRGRGQITVYSREIAQEMKRATQLEQALRNAIITDAIDVHFQPIVRLEEAKVIGFEALARWNDPDLGFVSPAVFVPLAEERGFIDALSEALLRKAAEAALFWPRELFLSFNLSSAQLMDPSTSDNILSILSRVGLDPHRLELEITETAVMTSADTAQRIISELQSAGVRISLDDFGTGQSSLGRLRDFTFDKVKIDRAFVSRISSDRPSEHIIKAIVAMCEGLDLEVVAEGIEERVEEEKLRALGCAMGQGYFYGRPVDAAATQRYLHENYREILSDISEGHHHHHH | soluble
MGSDKIHHHHHHMANNFDLHAALTLATKPGPFVTMTLPVTGIPATDRTQFNSLLKQGKEQLEKVAPDRTWSAYAESFTPFEHGPLTNGSATGLLIMAGASDSYHYWLHTPVAATVTVTYQPNVLPILQAQDKTSDYDILLLGRDAFDLAQVRNGRPEMVNLPVDAPVTLEKALGSELRDRGRWQRSAGEHTQYSGTGSLDTAREADQRNYFMMVDAYVSQHYSNVDQVPLILVANASDQGNFRKFSQNAYLDHVVRVVQGPNLAAANQTLAALALSITEQRHQQATQIRRDAYAKVRQNQQVVQDLGPLATAAVQGQVAKLWLRDDASQPGHLTEKGTVMTATALSRQNNLYNDLALQVSRLGGQVEVLPADAMPTSNPVAAQLRLRETVAH | not soluble
MKYTIEEIRQMQEGQTFDCKSILIEPKHLATIIVAMANADGGMIAVGISDKTRRIEGVNQDKEHLNDILRTPLDFCVPSVSVTTDYVPCTDAEGRDNRVLLMHIPASPRLHANQADEVFWRVGDKSRKLTFDERLQLMYDKGERYYEDSTAYDATLDDIDMDAVKAYMKRIGYGKSAMEYLQENKGFVTYKGDVPQVSAACILLFGKHPQTFFPRARVRFIKYFGTEEKVGREMNVIKDVTFDGRILEQIQKTVEYLETQVKEHSYLGEDGIFKTDREYPKFVIQEMVVNSVCHRDYSIKGTEIQIKMFDDRLVFETPGKLPGIVRTDNIRHTHFSRNPKIAEFLKAYDYVKEFGEGVDRMCRELSALGVKEPQYNLVAFIMKATVCAKVLEERQGTNHFDQKRPESDQKSDQMRIILELIKSNPNISRTELSEKTGLHDSSVKRRLKTLVDEGLIQRVGPDKGGQWKVIGSLLEHHHHHH | soluble
MKIVCIGAAPTALGAAYRLNELKNEGNEAAQNAEIVLLEQEAIAGGLSCTVTDEKGFLWDMGGHITFNHNYPYYEKATQWAVDDWNKLARNCMVDMNYLYDKKGIHLVPYPAQFAVPLFPDEVKNRCLADLKERYENPQDGTTPDNFEEWVLQHFGPTILNTFFKPYTKKVWTVEPLKMSPNWVGSRVAKLPQEKLEELCSMDQAELANADFGWGPNSYFTFPTYGGTGNVWNSMAKKLPNEWFKFNNKVTGVDHKEKTVEILEKGQTEPTKMSYDVLLNTAPIDQLVNNTQITAPLDIVHNKVFIVGVGLRKPMTSFLEKFTWLYFPDREVPFFRVTILSRYGEVTPDGDKYWSVMCECARPIDDPITEEEMVKKTLDGLVIKDMITREAIESVYSITLPYGYPIPTPNRDRELARAHGELERHQIYSRGRFGGWKYEASNQDHCFIQGKEFIDRVILGEPEKLYKTGVPTIPRGAAALEHHHHHH | soluble
MKLSHDCIRDILLFSESLPYNEPAFGDKIFKSDLLKKYSSEEINYAVSKLGDDDAQLIKGYVKFASNKPYMTCISSLTFDGHKYLDNIRDPKIWKESKKISSKLASVSIDIMSEIAAKVITKTLGLD | not soluble
MAHHHHHHMNCKNMDTSYEIINYLTKDELDIDLSCMDKKERYKIWKRLPKCELHCHLDVCFSVDFFLNVIRKYNIQPNMSDEEIIDYYLFSKPGKSLDEFVEKALRLTDIYIDYTVVEDLAKHAVFNKYKEGVVLMEFRYSPSFMSFKHNLDKDLIHEAIVKGLNEAVALLEYKIQVGLLCTGDGGLSHERMKEAAEFCIKHKKDFVGYDHAGHEVDLKPFKDIFDNIREEGISLSVHAGEDVSIPNLNSLYTAINLLHVKRIGHGIRVSESQELIDLVKEKDILLEVCPISNVLLNNVKSMDTHPIRMLYDAGVKVSVNSDDPGMFLTNITDNYEELYTHLNFTLADFMKMNLWAVQKSFVDPDIKNKIISKYF | soluble
MHSEVTPIHHYKKYWAECFGTAPFLPTSREEMDQLGWDSCDVIIVTGDAYVDHPSFGMAIIGRLLEAQGFRVGIIAQPEWQTKDAFMTLGKPNLFFGVTAGNMDSMINRYTADKKIRHDDAYTPNNKGGMRPDRCSLVYSQRCREAYKDVPIVLGGIEASLRRVAHYDYWSDKVRRSILLDAKADILLFGNAERALVEVAHRLANGESINKMVDIRGTAVNLAQVPEHFKIIDSTRIDQPNKPFVPSNPYEVETQCATKGDEKEEAQPITIRPSRHDAKTTAVRLPSFEKLVNDRILYAHASRVLHLETNPYSGRALVQRHGDRELWVNQAPIPLTTEEMDFVFGLYYARVPHPKYGDAKIPAYDMIKTS | soluble
MGHHHHHHENLYFQSHLYFQSHMYHDRRRTGFRQYETYMKQKQSADWQLDELLEELEALETQLNSSNGGDQLLLGVSGIPASSSRENVKSISTLPPPPPALSYHQTPQQPQLLHHHNNHLGYQNGIHQITSINSAASSCSSPDGDSAFGDSSSTESSNNRCRNSAFSSNDSCRDSLNTPSPTQVSPRNGELNAEEAKAQKIRQALEKMKEAKVTKIFVKFFVEDGEALQLLIDERWTVADTLKQLAEKNHIALMEDHCIVEEYPELYIKRVYEDHEKVVENIQMWVQDSPNKLYFMRRPDKYAFISRPELYLLTPKTSDHMEIPSGDQWTIDVKQKFVSEYFHREPVVPPEMEGFLYLKSDGRKSWKKHYFVLRPSGLYYAPKSKKPTTKDLTCLMNLHSNQVYTGIGWEKKYKSPTPWCISIKLTALQMKRSQFIKYICAEDEMTFKKWLVALRIAKNGAELLENYERACQIRRETLGPASSMSAASSSTAISEVPHSLSHHQRTPSVASSIQLSSHMMNNPTHPLSVNVRNQSPASFSVNSCQQSHPSRTSAKLEIQYDEQPTGTIKRAPLDVLRRVSRASTSSPTIPQEESDSDEEFPAPPPVASVMRMPPPVTPPKPCTPLTSKKAPPPPPKRSDTTKLQSASPMAPAKNDLEAALARRREKMATMEC | not soluble
MGSDKIHHHHHHKENNDFSSMQMKGVEQVSVKVDLDPAVERLSKAVQFRTISNQDRNDFDEKAFTDYHQFLEKAYPNVHKTLKREVLGSPRPFSLLYTWKGKDPSLPPALFYAHQDVVPVPSESRDQWAVDPFAGAVQDGYIWGRGVLDDKNQIHGILEAAEMKIKEGWQPSRTLYFVFGQDEEVGGPEGAKYIADVLEQRGIKRFAFVIDESAPLTPGIFPGIPDNTALIGIAQKGFVSLELAMNGIGGHSSQPPEESNIGILAKAITKLEAAQFPYRIHEAVRHQYRYMGPELSEDKQPMYAAVAFGKDGEITPLEQKFIDEMASQQVTRAMLHTTIAVTMFNAGIKDNVLPPSATAVVNFRPMPGDTPEVIIAHVKKAIGDDRITVRDISASTPATNVADPSSKSYQQLEKTIRQIYGNDLIVSPFFVIGGSDSKHFQARKFAPDVYTITGLQLESVKEFAGFHGVNERIRVDEYGRTIGFFYKLMDNLEEL | not soluble
MSLNPRLFSPHIIRSLLDLDAYKINMMQAIHHFYPDVSVRYELIVRSEEDASGLLDAIRQEIAHLGTLRFSDADIHYLTQHAPHLKATFLQSLRYFHFVPQEQVEMGIVKQGGKQQLRISIRGSWRDTILYETLVMAIVSEVRSRQRWAEVPADLPLKVLKTKLDQLKAEIERRGINNFSLTEMGTRRRFSSQVQRDVLACLKQEIPQWVLGTSNYHFAREFDLKPIGTIAHEWFMGHQALVNERDSQQVALERWLTAFDGMLAIAPTDTLTIDAFLNDFNRHLANAYDGVRHDSGCPFRWGDKMIAHYQQLGIDPTTKLFIFSDGLDFDQALELCEYFAGRVKISFGIGTFLTNDLANWRNAAGVEYRPLSIVIKLAECQGRPVAKISDQPEKAMCEDPIFLANLKRRFNIELDVDALIQELRHQKRSPRHYISAAEGHHHHHH | soluble
MMIVKRFILGEYSTNTYLVVSGDEGILIDVAENPSEVIDYILTNNIKLKSIYATHGHFDHVLGVTEVKKYFNVPFFLHRSDLDLLRRDERTKGIVPDGFIDEKSIIKIGNEELKVIETPGHTMGSVCYIFDDGIFTGDTLFNGSIGRYDLGGDKNLLKKSLNRLMELNDGLTVYPGHGFFTTLGYEKLTNPFLNGEFEW | soluble
MGSDKIHHHHHHMEKQSDSYYISAVQAGDTESFAPLVERYSDMLYALLCRLLQDEEDAADLLQDTFVKAFRHISRFDGRSSFSTWIYRIAYNEAIDHLRRHKAYVTDRVEELPDVPDEDLEPSGEDPELLQQALDSLPAADKALLLMFYSDDLSVRDIAEVTGMSESNVKVKLHRLRTKLYKMMRK | not soluble
MIYRKATEKDIAQLVELRKKQLEDEGIAPINNIDTELTHFFELSFKKNSFISWISEEDNEIIATSGVCFYKYPPSYLNPSGKVAYITNMYTKYEYRSRGIALALLKLVILEAKKRDYLFLRLHASDMGRPIYEEIGFKPFDDFMEMNLSLNRNGELEHHHHHH | soluble
MGSDKIHHHHHHMNPDFSYEKKKIEFSSGYIFKGKHYRCSIIKYASLYKNCTKGTENVEIYHFSPRERSVGSILILHGLGTVNIPFLFWMGSHLASAGLQASVMILPGNYTRTASGSTSGKDFFSPDLRRLTAFWEQAVVDTMTTIDLLQQENIWWDNNCLFGYCLGGMVSTIVSAIDKRINDLILMTVGGNIAKIIWQSPVLKSIRLSLRSGSGEEGYLNDEKRLNARFKEDSLAVKKMKSASELLESDLHPLFKIDPLAYARFNDSEKVTMIEALFDKALPVQTRKQLWEAFGRPKRYIVPIGHVSWFPFEYALGKYILKKLGIKEARKKMRLLESTKPTE | not soluble
MAHHHHHHMCLLSFFSLYPLGSFSSGKSNMDTPPISDDDKEVIDRLFASDVPQSLSRHAVLILHYHRTVFGSMVPSNVLLAGCLLYSCKWLSYPSGNSFLKNYFQGMKTSDIVGLEMVLHGTVRQNFMLVEACLRSEMSEIVRLNDVPHNRERIVLVCLNLVRALYRTRWCLLPETAARGALLVACEMCDVHLKSLPESFNTTMVTCAVDYLRSIFAQSRC | not soluble
MSRARCERCLRPAGHCLCPLIPQLPSRTRVLLLQHPSEVNHALNTARLAALGLNNAELVVGEVFEELPALLDQPGYRACLLFPADDARPLQAYAETDVPLLLVVPDGTWRKARKLLHLNPLLAALPRVTLATGVESRYRLRKAPGPGALSTVEAIVQALQVLEAPASFEPLLRPFEALIEGQIAAMGEDTYQRNHAKSAAALEHHHHHH | not soluble
